Positions count from the first letter of the chain named. Numbers in names are those of the source.
T1: His-tagged recombinant Human TIGIT (human, UniProt Q495A1 22-141)
T1 construct: coated antigen of the direct ELISA; not shown: His tag
T1 sequence (looked up): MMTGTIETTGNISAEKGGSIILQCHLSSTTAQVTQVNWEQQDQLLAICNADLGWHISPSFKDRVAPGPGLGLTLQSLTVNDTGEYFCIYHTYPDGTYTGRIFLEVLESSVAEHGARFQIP

T2: His-tagged recombinant Mouse TIGIT (mouse, UniProt P86176 29-148, limits assumed)
T2 construct: coated antigen of the direct ELISA; not shown: His tag
T2 sequence (looked up): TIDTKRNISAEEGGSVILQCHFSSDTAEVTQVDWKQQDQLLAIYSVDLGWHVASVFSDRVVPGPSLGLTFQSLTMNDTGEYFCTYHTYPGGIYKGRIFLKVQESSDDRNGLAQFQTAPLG

T3: biotinylated human TIGIT (human, UniProt Q495A1 22-141, biotinylated (EZ-Link NHS-PEG4-biotin kit))
T3 construct: extracellular domain; also called TIGIT-ECD
T3 sequence (looked up): T1 sequence (looked up)

T4: mouse TIGIT-Fc (mouse, UniProt P86176 29-148)
T4 construct: extracellular domain; also called TIGIT-ECD; not shown: Fc
T4 sequence (looked up): T2 sequence (looked up)

T5: human TIGIT fused to a beta galactosidase portion, on YTS cells (YTS_hTIGIT/hGrb2) (human, UniProt Q495A1 22-244)
T5 sequence (looked up): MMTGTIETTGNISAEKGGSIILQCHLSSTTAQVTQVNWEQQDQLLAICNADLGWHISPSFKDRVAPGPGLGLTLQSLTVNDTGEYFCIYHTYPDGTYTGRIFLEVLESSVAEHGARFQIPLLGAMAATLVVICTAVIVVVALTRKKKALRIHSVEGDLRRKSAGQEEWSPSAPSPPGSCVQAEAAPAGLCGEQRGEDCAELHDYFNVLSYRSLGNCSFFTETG

B1: Ab28i1 (antibody, V domains shown)
VH: EVQLLESGGGLVQPGGSLRLSCAASGFTFSSYSMHWVRQAPGKGLEWVANINSNGGNTGYADSVKGRFTISRDNSKNTLYLQMNSLRAEDTAVYYCARVPYDVWMDYWGQGTLVTVSS
VL: not shown
notes: hIgG1 of Ab28
B2: Ab1i8 (antibody, V domains shown)
VH: B1 VH with S33A, A49S, N50G, N52S, N57S, G59S, D102G, M105I
VL: not shown
notes: mIgG2a of Ab1, S98G
B3: Ab1i5 (antibody, V domains shown)
VH: B1 VH with S33A, A49S, N50G, N52S, N57S, G59S, D102S, M105A
VL: not shown
notes: mIgG2a of Ab1, I100aA
B4: Ab15i1 (antibody, V domains shown)
VH: B1 VH with N50S, N52W, G55S, V103Y
VL: not shown
notes: hIgG1 of Ab15
B5: Ab53i8 (antibody, V domains shown)
VH: B1 VH with N50S, N52K, S53Y, N54S, G55S, G56S, T58K, G59Y, V99G, M105L
VL: not shown
notes: mIgG2a of Ab53, S52aY
B6: Ab48 (Fab, V domains shown)
VH: B1 VH with H35N, N52K, N54S, G56S, N57S, G59S, V99G
VL: not shown
B7: Ab40i1 (antibody, V domains shown)
VH: B1 VH with S33G, H35N, N50G, N52K, S53Y, N54S, G55S, T58K, G59Y, V99G
VL: not shown
notes: hIgG1 of Ab40
B8: Ab15i2 (antibody, V domains shown)
VH: B1 VH with N50S, N52W, G55S, V103Y
VL: not shown
notes: mIgG2a of Ab15
B9: Ab40i2 (antibody, V domains shown)
VH: B1 VH with H35N, N50G, N52K, S53Y, N54S, G55S, T58K, G59Y, V99G
VL: not shown
notes: hIgG1 of Ab40, G33S
B10: Ab17i2 (antibody, V domains shown)
VH: B1 VH with S33A, H35S, N50S, N52K, N54S, G59Y, V99E, D102S, V103Y
VL: not shown
notes: mIgG2a of Ab17
B11: Ab1i7 (antibody, V domains shown)
VH: B1 VH with S33A, A49S, N50G, N52S, N57S, G59S, D102A, M105I
VL: not shown
notes: mIgG2a of Ab1, S98A
B12: Ab32i1 (antibody, V domains shown)
VH: B1 VH
VL: not shown
notes: hIgG1 of Ab32
B13: Ab53i7 (antibody, V domains shown)
VH: B1 VH with N50S, N52K, S53Y, N54S, G55S, G56S, T58K, G59Y, V99G, M105L
VL: not shown
notes: hIgG1 of Ab53, S52aY
B14: Ab17i1 (antibody, V domains shown)
VH: B1 VH with S33A, H35S, N50S, N52K, N54S, G59Y, V99E, D102S, V103Y
VL: not shown
notes: hIgG1 of Ab17
B15: Ab28i2 (antibody, V domains shown)
VH: B1 VH
VL: not shown
notes: mIgG2a of Ab28

Columns and labels:
[1] = target: T1, His-tagged recombinant Human TIGIT; experiment: ELISA
Protocol: (§1) Binding affinities for antigen binding to anti-TIGIT monoclonal antibodies were determined by ELISA. […] Antibodies to be tested were diluted to 1 μM in PBS buffer containing 1% BSA and diluted 3-fold in a 10-point curve. […] Detection of the secondary antibody was determined using streptavidin-HRP and TMB reagent. All assays were performed at room temperature. Curve-fitting software was used to determine the EC₅₀ for each antibody.

[2] = target: T2, His-tagged recombinant Mouse TIGIT; experiment: ELISA
Protocol: as §1

biotinylated human TIGIT = target: T3, biotinylated human TIGIT; experiment: comp. ELISA vs PVR
Protocol: (§2) Antibodies were serially diluted in a 10-point curve starting at 1 μM in 3-fold steps. […] Units are in microM.

mouse TIGIT-Fc = target: T4, mouse TIGIT-Fc; experiment: comp. ELISA vs PVR
Protocol: as §2

[3] = target: T5, human TIGIT fused to a beta …; experiment: cell-based or functional assay

Row | Binder | EC50 [1] [nM] | EC50 [2] [nM] | IC50 (biotinylated human TIGIT) [nM] | IC50 (mouse TIGIT-Fc) [nM] | YTS_hTIGI/hGrbs_EFC_Antagonism, 221_hPVR/ICAM [3] [µM] | YTS_hTIGI/hGrbs_EFC_Agonism, 221_WT [3] [µM]
1 | B1 | 0.4 | 2.7 | 1.2 | 1.3 | 0.0758 | 
2 | B2 | 1.7 | 26.3 | 5.8 | 99.3 |  | 
3 | B3 | 8 | 6.8 | 2.8 | 13.3 |  | 
4 | B4 | 4.8 | 2.3 | 2.2 | 1.2 | > 1 | > 1
5 | B5 | 1.7 |  | 12.5 |  | > 1 | 0.02
6 | B6 | 13.8 | 41.8 | 111 | 64.7 |  | 
7 | B7 | 0.3 |  | 1.3 | > 1000 | 0.0002 | > 1
8 | B8 | 21.6 | 2.7 | 10.9 | 1.6 | 0.275 | > 1
9 | B9 | 0.2 |  | 2 | > 1000 | 0.186 | 0.0011
10 | B10 |  | 0.2 |  | 1.6 | > 1 | 
11 | B11 | 3.8 | 72.9 | 16.1 | 183 |  | 
12 | B12 | 0.4 | 2.5 | 1.1 | 1.4 | 0.069 | 
13 | B13 | 3.2 |  | 36.3 |  | 1.93 | 0.0681
14 | B14 |  | 0.1 |  | 1.1 | > 1 | 0.0012
15 | B15 | 0.6 | 2.5 | 2 | 1.5 | 0.26 | 

From patent US20200339678A1 (RIGEL PHARMACEUTICALS, published 2020)
